Results on 30 sequences are retold here after the nanobody polyreactivity screen of Harvey et al. (2022).

A short description of this data set: yeast display, Sf9 membrane polyspecificity reagent, FACS + sequencing; frameworks hold sequencing errors. In a few lines: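 Polyreactivity labels are assigned by the sorting gate from which each nanobody was recovered. The gates were low and high (top ~1%), set on anti-HA fluorescence for expression and streptavidin fluorescence for reagent binding. Before sorting, galactose-induced (36–48 hours) yeast display cells were stained for 1 hour at 4 °C with 10% biotinylated, detergent-solubilized Sf9 membrane reagent.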
“QVQLVESGGGLVQAGGSLRLSCADSGRIFRGNGMGWSRQAPGKEREFVDAISRGDGNTYYADSVKGRFTISRDNAKNTVYLQMNSLKPEDTAVYSCAAGGYGYYDFPQYNYWGQGTQVTVSS”: the “polyreactivity (PSR sort gate)” value was “low polyreactivity”.
As to “QVQLVESGGGLVQAGGSLRLSCADSGRTFGPYAMGWYRQAPGKERELVAAITSSGGSTYYADSVKGRFTISRDNAKNTVSLQMNSLKPEDTAVYYCNKLYWRQSQDYDYWGQGTQVTVSS”, the “polyreactivity (PSR sort gate)” value is given as “low polyreactivity”.
For the sequence “QVQLVESGGGLVQAGGSLRLSCADSGRTIYRNGMGWYRKAPGKEREFVAAINYRGGSTNYADSVKWRFTISRDKAKNTVYLQMNSLKPEDTAVYYCATRIFRAALRFDYWGQGTQVTVSS”, the “polyreactivity (PSR sort gate)” value is “high polyreactivity”.
As for “QVQLVESGGGLVQAGGSLRLSCADSGSIFDGNAMGWYRQAPGKERALVAAISRRGGSTYYADSVKGRFTISRDKAKNTVYLQMNSLKPEDTAVYYCNAYLSYFDGNYWGQGTQVTVSS”, the entry is “high polyreactivity”; as for “QVQLVESGGGLVQAGGSLRLSCADSGSIFDVNVMGWYRQAPAKERELVASINISGASTYYADSVKGRLTISRDNAKNTVSLQMNSLKPEDTAVYYCAGTYGVPSFRYGYWGQGTQVTVSS”, “low polyreactivity”.
Consider “QVQLVESGGGLVQAGGSLRLSCADSGSIFPFYAMGWYRQAPGKERELVASISSGGSTNYADSVKGRFTISRDNAKKTVYLQMNSLKPEDTAVYYCNAVGTFVRYGTDGRDGVNYDYWGQGTQVTVSS”, for which the “polyreactivity (PSR sort gate)” value is “low polyreactivity”.
As for “QVQLVESGGGLVQAGGSLRLSCADSGSIFQYYVRGCYRQAPGKERELVAAIRRSGTTYYADSVKGRFTISRDNAKNTVYLQMNSLKTEDTAVDYCNKVRCQEPSNYDYWVQGTQVTVSS”, the entry is “low polyreactivity”; as for “QVQLVESGGGLVQAGGSLRLSCADSGSIFRDNVMGWYRQAPGKEREFVAAISRRGGITYYADSVKGRFTISRDNAKNTVYLQMNSLKPEDTAVYYCATTGGRQYGYWGQGTQVTVSS”, “high polyreactivity”.
As for “QVQLVESGGGLVQAGGSLRLSCADSGSIFSKYAMGWYRQAPGKERELVAAISRSGGRTYYADSVKGRFTISRDNAKNTVYLQMNSLKPEDTAVYYCAADRSYYTWFGGDYWGQGTQVTVSS”, the entry is “high polyreactivity”.
As for “QVQLVESGGGLVQAGGSLRLSCADSGSIFVYNAMGWYRQAPGKERELVAAITTGGSTNYADSVKGRFTISRDNAKNTVYLQMISLKPEDTAVYYCAVEGYPGRYRDPGDLYYYWGQGTQVTLSS”, the entry is “low polyreactivity”; as for “QVQLVESGGGLVQAGGSLRLSCADSGSIFWGNAMGWYRQAPGKERELVAAITRGGSTYYADSVKGRFTISRDNAKNTVYLQMNSLTPEDTAVYYWAVLSRRYAAYDYWGLGTQVTVSS”, “high polyreactivity”; as for “QVQLVESGGGLVQAGGSLRLSCADSGSIFYTYAMGWYRPAPGKERELVAAITRSGGSTNYADSVKGRFTITRDNAKYTVYLQMNSLKPEDNAVYYCAAVFNWAPYFYYYWGQRTQVTVSS”, “high polyreactivity”.
In the case of “QVQLVESGGGLVQAGGSLRLSCADSGSSFPSYAMLWYRQAPGKERELVAAISSSGGRTYYADYVKGRFTISRDNAKNTVYLQMNSLIPVDTAVYYCAADRRKWPTGGYWGEGTQVTVSS”, the “polyreactivity (PSR sort gate)” value is listed as “high polyreactivity”.
As for “QVQLVESGGGLVQAGGSLRLSCADSGSTFPFYAMGWYSHSPGKERELVAAITSGGSTYADYVKGRFTISRDNAKNTVYLQMNSLNPEDTAVYYCAGSWPRWWRFGYWGQGTQVTVSS”, the entry is “low polyreactivity”; as for “QVQLVESGGGLVQAGGSLRLSCADSGSTFQANAMGWYRQAPGKERELVATISNDGSTKYADSVKGRFTISRDNAKNTVYLQMNSLKPEDTALYYCAADSARHGRDTYQPEYRNDYWGQGTQVTVSS”, “low polyreactivity”.
As for “QVQLVESGGGLVQAGGSLRLSCADSGSTFRYYAMGWYRQAPGKERELVAAITKNGGSTYYADSVKGRFTISRDNAKNTVYLEMNSLKPEDTAVYYCAVQFSYSGWYYVSYYYWGQGTQVTVSS”, the entry is “high polyreactivity”.
The value for “QVQLVESGGGLVQAGGSLRLSCADSGSTFTSNAMRWYRQAPGKEREFVAAINWGGSITYYADSVKGRFTISRDNAKNTVYLQMNSLKPEDTAVYYCAAETYYDTYYPEGDYWGQGTQVTVSS” was “low polyreactivity”; that for “QVQLVESGGGLVQAGGSLRLSCADSGSTFTVYVMGWYRQAPGKETEFVAAITRIGGSTYYADSVKGRFTISRDYAKNTVYLQRNCLKTEDTAVYYCATYHTNSYYQLLYDYWGQGTQVTVSS” was “low polyreactivity”; that for “QVQLVESGGGLVQAGGSLRLSCADSGSTFYHNAMGWYRQAPGKERELDDAIRFSGTSTYYADSVKGRFTISRDNAKNTVYLQMNSLKPEDTAVYYCAAEVSSPAQREFDYWGQGTQVTVSS” was “low polyreactivity”.
In the case of “QVQLVESGGGLVQAGGSLRLSCADSGSTFYRYAMGWYRPAPGKERELVAAISKRGGSTYYADSVKGRFTISRDNAKNTVYLQMNSLKPEDTAVYYCAADPFHYGGGDDYWGQGTQVTVSS”, the “polyreactivity (PSR sort gate)” value is given as “high polyreactivity”.
As for “QVQLVESGGGLVQAGGSLRLSCADSGSTITYYTMGWYRQAPGKERDLVAAISGSGGRTYYADSVKGRFTISRDNAKNTVYLQMNSLKPEDTAVYYCAAGYQLSRYDYWGQGTQVTVSS”, the entry is “high polyreactivity”; as for “QVQLVESGGGLVQAGGSLRLSCADSGSTIYGYAMGWYRQAPGKERELVAAISISGGGTYYADSVKGRFTISRDNAKNSVYLQMNSLKPEDTAVYYCARRYFWGQGTQVTVSS”, “low polyreactivity”.
As for “QVQLVESGGGLVQAGGSLRLSCADSGYIFYYNAMGWYRQAPGKERDLVATITSGGSTYYADSLKGRFTISRDNAKNTVYLQMNSLKPEDTAVYYCAAPSQSIRYTYIRSYYWGQGTQVTVSS”, the entry is “low polyreactivity”; as for “QVQLVESGGGLVQAGGSLRLSCADSRFNYSYNAMGSYRKAPGKERELVAAISTSGGRTYYADSVKGRFTISRDNAKNTVYLQMNSLKPEDTAVYYCAALSRNQYDPQSYVYWGQGTQVTGSS”, “high polyreactivity”; as for “QVQLVESGGGLVQAGGSLRLSCAGSGFIFNVYAMGWYRQAPGKARELVAAISRSGGSTYYADSVKGRFTISRDNAKNTVYLQLNSLKPEDTAVYYCNARTPPSYYDMGYWGQGTQVTVSS”, “high polyreactivity”.
The value for “QVQLVESGGGLVQAGGSLRLSCAGSGITFVAYAMGWYRQAPGKDRELVAAISGGGGSTYYADSVKGRFTISRDNAKNTVYLQMNSLKPEDTAVYDCNAEPYTSSGGYRGYDFDYWGQGTQVTVSS” was “low polyreactivity”; that for “QVQLVESGGGLVQAGGSLRLSCAGSGRIFQRNDMGWYRQAPGKARELVAGITGCGGRTYYADSVKGRFTISRDNEKNTVYLQMNSLKPEDTAVYYCAAALWSSRGRVLSRRDYWGQGTQVTVSS” was “high polyreactivity”.
For the sequence “QVQLVESGGGLVQAGGSLRLSCAGSGRIFREYPMGAYRHAPGKARELVAAITASGGGTYYADSVKGRFTLSRDNAKNTVYLQMNSLKPEDSAVYYCNAVLAPGGYDYWGQGTQVTVSS”, the “polyreactivity (PSR sort gate)” value is given as “low polyreactivity”.
As for “QVQLVESGGGLVQAGGSLRLSCAGSGRIFTDYTMGWYRQAPGQERELVAAISYSGGSTYYADSVKGRFTISRDNAKNTVYLQMNSLKPEDTAVYYCNKDYYLHEGYGYWGQGTQVTVSS”, the entry is “low polyreactivity”.
As for “QVQLVESGGGLVQAGGSLRLSCAGSGSIFGVYDLGWYRQAPGKERELVAVINSNGGSTYYADSVKGRFTISRDNAKNTVYLQMNSLKPEDTAVYYCAADYQSYVYIGYGYWGQGTQVTVSS”, the entry is “low polyreactivity”.
